# Test results reported in IntAct's records for PubMed 29039417.
# B1: BBSome complex member BBS2 (Homo sapiens), Q9BXC9 (parent)
# chain: MLLPVFTLKLRHKISPRMVAIGRYDGTHPCLAAATQTGKVFIHNPHTRNQHVSASRVFQSPLESDVSLLSINQAVSCLTAGVLNPELGYDALLVGTQTNLLAYDVYNNSDLFYREVADGANAIVLGTLGDISSPLAIIGGNCALQGFNHEGSDLFWTVTGDNVNSLALCDFDGDGKKELLVGSEDFDIRVFKEDEIVAEMTETEIVTSLCPMYGSRFGYALSNGTVGVYDKTSRYWRIKSKNHAMSIHAFDLNSDGVNELITGWSNGKVDARSDRTGEVIFKDNFSSAIAGVVEGDYRMDGHIQLICCSVDGEIRGYLPGTAEMRGNLMDTSAEQDLIRELSQKKQNLLLELRNYEENAKAELASPLNEADGHRGIIPANTRLHTTLSVSLGNETQTAHTELRISTSNDTIIRAVLIFAEGIFTGESHVVHPSIHNLSSSICIPIVPPKDVPVDLHLKAFVGYRSSTQFHVFESTRQLPRFSMYALTSLDPASEPISYVNFTIAERAQRVVVWLGQNFLLPEDTHIQNAPFQVCFTSLRNGGHLHIKIKLSGEITINTDDIDLAGDIIQSMASFFAIEDLQVEADFPVYFEELRKVLVKVDEYHSVHQKLSADMADHSNLIRSLLVGAEDARLMRDMKTMKSRYMELYDLNRDLLNGYKIRCNNHTELLGNLKAVNQAIQRAGRLRVGKPKNQVITACRDAIRSNNINTLFKIMRVGTASS
# partner: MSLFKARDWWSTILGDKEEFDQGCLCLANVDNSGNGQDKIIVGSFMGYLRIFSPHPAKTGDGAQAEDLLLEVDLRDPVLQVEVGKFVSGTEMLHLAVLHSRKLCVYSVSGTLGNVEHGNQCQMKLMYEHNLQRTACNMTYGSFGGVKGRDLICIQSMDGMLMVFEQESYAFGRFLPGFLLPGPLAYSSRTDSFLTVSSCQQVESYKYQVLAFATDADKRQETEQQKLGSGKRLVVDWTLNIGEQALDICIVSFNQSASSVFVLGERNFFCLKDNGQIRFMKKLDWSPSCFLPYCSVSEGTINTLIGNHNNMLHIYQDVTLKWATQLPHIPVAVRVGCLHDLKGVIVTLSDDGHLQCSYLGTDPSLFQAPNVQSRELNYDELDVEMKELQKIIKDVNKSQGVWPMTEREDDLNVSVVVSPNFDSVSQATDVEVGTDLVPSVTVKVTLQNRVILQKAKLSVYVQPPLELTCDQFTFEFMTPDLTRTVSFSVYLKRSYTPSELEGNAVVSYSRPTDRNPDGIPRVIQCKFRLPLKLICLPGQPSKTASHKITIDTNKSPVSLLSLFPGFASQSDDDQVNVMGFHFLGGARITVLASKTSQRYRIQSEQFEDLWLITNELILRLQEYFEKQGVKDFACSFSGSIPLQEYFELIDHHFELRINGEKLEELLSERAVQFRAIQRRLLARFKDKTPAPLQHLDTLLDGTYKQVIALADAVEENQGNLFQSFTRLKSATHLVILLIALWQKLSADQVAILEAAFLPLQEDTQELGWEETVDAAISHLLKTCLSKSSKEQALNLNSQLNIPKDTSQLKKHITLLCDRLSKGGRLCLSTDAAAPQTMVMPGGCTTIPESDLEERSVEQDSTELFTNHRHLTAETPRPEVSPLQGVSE
# Variants of: B1
# Conditions: with pthb1_human BBS9, Q3SYG4
row,Variant,effect of a mutation on the interaction
1,E420K,with no effect
2,P432A,with no effect
3,P432L,disrupting interaction strength
4,P432E,with no effect
5,P432K,with no effect
6,N436A,with no effect
7,N436E,with no effect
8,T424K,with no effect
9,T424A,with no effect
10,T424E,with no effect
11,F423K,with no effect
12,F423A,with no effect
13,F423E,with no effect
14,I422E,with no effect
15,I422A,with no effect
16,I422K,with no effect
17,I434E,with no effect
18,I434K,with no effect
19,I434A,with no effect
20,E426K,with no effect
21,E426A,with no effect
22,H435E,with no effect
23,H435A,with no effect
24,H435K,with no effect
25,S433A,with no effect

row,Variant,effect of a mutation on the interaction
1,S433E,with no effect
2,S433K,with no effect
3,H428E,with no effect
4,H428K,with no effect
5,H428A,with no effect
6,G425A,with no effect
7,G425E,with no effect
8,G425K,with no effect
9,H431A,with no effect
10,H431K,with no effect
11,H431R,disrupting interaction strength
12,H431E,with no effect
13,G421E,with no effect
14,G421A,with no effect
15,G421K,with no effect
16,V430A,disrupting interaction strength
17,V430K,with no effect
18,V430E,with no effect
19,V429K,with no effect
20,V429E,with no effect
21,V429A,with no effect
22,S427A,with no effect
23,S427K,with no effect
24,S427E,with no effect

# Now from value to variant:
row,effect of a mutation on the interaction,Variant
1,with no effect,P444A
2,with no effect,P444K
3,with no effect,P444E
4,with no effect,C442A
5,with no effect,C442E
6,with no effect,C442K
7,with no effect,S440E
8,with no effect,S440A
9,with no effect,S440K
10,with no effect,N436K
11,disrupting interaction strength,I443E
12,disrupting interaction strength,I443A
13,disrupting interaction strength,I443K
14,with no effect,S439K
15,disrupting interaction strength,S439N
16,disrupting interaction strength,S439E
17,disrupting interaction strength,S439A
18,disrupting interaction strength,I445T
19,disrupting interaction strength,I445Q

row,effect of a mutation on the interaction,Variant
1,disrupting interaction strength,I445A
2,disrupting interaction strength,I445E
3,disrupting interaction strength,I445K
4,with no effect,P447E
5,with no effect,P447A
6,with no effect,V446K
7,with no effect,V446E
8,with no effect,V446A
9,with no effect,S438E
10,with no effect,S438A
11,disrupting interaction strength,S438F
12,with no effect,S438K
13,with no effect,I441K
14,with no effect,I441E
15,with no effect,I441A
16,with no effect,L437E
17,disrupting interaction strength,L437K
18,with no effect,L437A
